# Data reported in the Immune Epitope Database (IEDB).
# Columns and labels:
# HLA-B*40:01 [1] = assay: IEDB peptide-MHC binding, purified MHC/direct/fluorescence; filed as Kd, often an IC50 or EC50 that approximates it; ≥ and ≤ were set here for values at or beyond the usual limits of such assays; settings: source organism: Influenza A virus (A/SW/MN/12883/00(H1N2))
# HLA-B*44:02 [2] = assay: as above
# HLA-B*18:01 [3] = assay: as above
# HLA-B*40:01 [4] = assay: IEDB peptide-MHC binding, purified MHC/competitive/radioactivity; filed as Kd, often an IC50 or EC50 that approximates it; ≥ and ≤ were set here for values at or beyond the usual limits of such assays
# HLA-B*44:03 = assay: as above
# HLA-B*44:02 [5] = assay: as above
# HLA-B*40:02 = assay: as above
# HLA-B*45:01 = assay: as above
# HLA-B*18:01 [6] = assay: as above
# HLA-A*24:03 = assay: IEDB peptide-MHC binding, purified MHC/direct/fluorescence; filed as Kd, often an IC50 or EC50 that approximates it; ≥ and ≤ were set here for values at or beyond the usual limits of such assays; settings: source organism: Mycobacterium tuberculosis
# HLA-B*45:06 = assay: IEDB peptide-MHC binding, purified MHC/competitive/fluorescence; filed as Kd, often an IC50 or EC50 that approximates it; ≥ and ≤ were set here for values at or beyond the usual limits of such assays
# HLA-B*83:01 = assay: as above
# HLA-B*15:42 = assay: as above
# HLA-B*08:01 = assay: IEDB peptide-MHC binding, purified MHC/direct/fluorescence; filed as Kd, often an IC50 or EC50 that approximates it; ≥ and ≤ were set here for values at or beyond the usual limits of such assays; settings: source organism: Salmonella enterica subsp. enterica serovar Typhimurium str. LT2
# HLA-A*26:01 = assay: IEDB peptide-MHC binding, purified MHC/competitive/fluorescence; filed as Kd, often an IC50 or EC50 that approximates it; ≥ and ≤ were set here for values at or beyond the usual limits of such assays; settings: source organism: Bacillus anthracis str. A0488
# [7] = source organism: Influenza A virus (A/SW/MN/12883/00(H1N2))
# [8] = source organism: Mammarenavirus machupoense
# [9] = source organism: Mammarenavirus guanaritoense
# [10] = source organism: SARS coronavirus Tor2
# [11] = source organism: Mammarenavirus brazilense
# [12] = source organism: Dengue virus 1 Singapore/S275/1990
# [13] = source organism: Mycobacterium tuberculosis H37Rv
# [14] = source organism: Mycobacterium tuberculosis C
# [15] = source organism: human gammaherpesvirus 4
# [16] = source organism: Mammarenavirus lassaense
sequence,measurement,setting,value
NEVGARILT,Kd,HLA-B*40:01 [1],≥ 20 µM
same,Kd,HLA-B*44:02 [2]; [7],≥ 20 µM
same,Kd,HLA-B*18:01 [3]; [7],0.658 µM
PDIGELFGL,Kd,HLA-B*40:01 [4]; [8],12.7 µM
same,Kd,HLA-B*44:03; [8],≥ 66.6 µM
same,Kd,HLA-B*44:02 [5]; [8],≥ 77.9 µM
same,Kd,HLA-B*40:02; [8],≥ 22.1 µM
same,Kd,HLA-B*45:01; [8],≥ 77.7 µM
same,Kd,HLA-B*18:01 [6]; [8],≥ 77.5 µM
PEFDWILGWT,Kd,HLA-B*40:01 [4]; [9],≥ 69.5 µM
same,Kd,HLA-B*44:03; [9],≥ 28.1 µM
same,Kd,HLA-B*44:02 [5]; [9],≥ 70.2 µM
same,Kd,HLA-B*40:02; [9],≥ 23.6 µM
same,Kd,HLA-B*45:01; [9],≥ 70 µM
same,Kd,HLA-B*18:01 [6]; [9],≥ 70.4 µM
PYIDAADQF,Kd,HLA-A*24:03,0.0912 µM
QEAYYRARA,Kd,HLA-B*40:01 [4]; [10],19.9 µM
same,Kd,HLA-B*44:03; [10],7.32 µM
same,Kd,HLA-B*44:02 [5]; [10],6.16 µM
same,Kd,HLA-B*40:02; [10],1.93 µM
same,Kd,HLA-B*45:01; [10],0.0151 µM
same,Kd,HLA-B*18:01 [6]; [10],≥ 50.8 µM
QEIQLLAAVG,Kd,HLA-B*40:01 [4]; [10],2.01 µM
same,Kd,HLA-B*44:03; [10],0.44 µM
same,Kd,HLA-B*44:02 [5]; [10],0.883 µM
same,Kd,HLA-B*40:02; [10],18 µM
same,Kd,HLA-B*45:01; [10],0.121 µM
same,Kd,HLA-B*18:01 [6]; [10],6.88 µM
QESLTTTSTA,Kd,HLA-B*40:01 [4]; [10],10.2 µM
same,Kd,HLA-B*44:03; [10],0.682 µM
same,Kd,HLA-B*44:02 [5]; [10],7.11 µM
same,Kd,HLA-B*40:02; [10],0.146 µM
same,Kd,HLA-B*45:01; [10],0.0396 µM
same,Kd,HLA-B*18:01 [6]; [10],≥ 70.5 µM
REIGSLLHGL,Kd,HLA-B*40:01 [4]; [11],9.19 µM
same,Kd,HLA-B*44:03; [11],0.878 µM
same,Kd,HLA-B*44:02 [5]; [11],0.764 µM
same,Kd,HLA-B*40:02; [11],0.00584 µM
same,Kd,HLA-B*45:01; [11],2.75 µM
same,Kd,HLA-B*18:01 [6]; [11],≥ 30.4 µM
RERVNINIV,Kd,HLA-B*40:01 [4]; [10],10.7 µM
same,Kd,HLA-B*44:03; [10],≥ 38.2 µM
same,Kd,HLA-B*44:02 [5]; [10],≥ 35.4 µM
same,Kd,HLA-B*40:02; [10],0.026 µM
same,Kd,HLA-B*45:01; [10],0.265 µM
same,Kd,HLA-B*18:01 [6]; [10],≥ 37.8 µM
SEHTGKEIV,Kd,HLA-B*44:02 [2]; [12],≥ 20 µM
same,Kd,HLA-B*18:01 [3]; [12],3.09 µM
SPAAYVLPL,Kd,HLA-B*45:06; [13],≥ 5 µM
same,Kd,HLA-B*83:01; [13],0.156 µM
same,Kd,HLA-B*15:42; [13],≥ 5 µM
SVMAIFYLR,Kd,HLA-B*45:06; [14],≥ 5 µM
same,Kd,HLA-B*83:01; [14],≥ 5 µM
same,Kd,HLA-B*15:42; [14],≥ 5 µM
TEFQSVTFTM,Kd,HLA-B*40:01 [4]; [8],1.57 µM
same,Kd,HLA-B*44:03; [8],0.636 µM
same,Kd,HLA-B*44:02 [5]; [8],1.16 µM
same,Kd,HLA-B*40:02; [8],0.126 µM
same,Kd,HLA-B*45:01; [8],13.6 µM
same,Kd,HLA-B*18:01 [6]; [8],0.0328 µM
TMRLRSEVL,Kd,HLA-B*08:01,0.022 µM
TVKSFLNFY,Kd,HLA-A*26:01,0.0072 µM
VESSSKLWA,Kd,HLA-B*40:01 [4]; [10],≥ 42.2 µM
same,Kd,HLA-B*44:03; [10],1.6 µM
same,Kd,HLA-B*44:02 [5]; [10],3.34 µM
same,Kd,HLA-B*40:02; [10],3.16 µM
same,Kd,HLA-B*45:01; [10],0.267 µM
same,Kd,HLA-B*18:01 [6]; [10],1.25 µM
VPRPRFSAL,Kd,HLA-B*45:06; [15],≥ 20 µM
same,Kd,HLA-B*83:01; [15],0.106 µM
same,Kd,HLA-B*15:42; [15],≥ 5 µM
YDFVLVGPC,Kd,HLA-B*40:01 [4]; [16],3.34 µM
same,Kd,HLA-B*44:03; [16],6.83 µM
same,Kd,HLA-B*44:02 [5]; [16],1 µM
same,Kd,HLA-B*40:02; [16],0.836 µM
same,Kd,HLA-B*45:01; [16],7.22 µM
same,Kd,HLA-B*18:01 [6]; [16],≥ 24 µM
YDQLLDSSL,Kd,HLA-B*40:01 [4]; [11],9.99 µM
same,Kd,HLA-B*44:03; [11],≥ 78.1 µM
same,Kd,HLA-B*44:02 [5]; [11],≥ 26.5 µM
same,Kd,HLA-B*40:02; [11],0.273 µM
same,Kd,HLA-B*45:01; [11],≥ 77.7 µM
same,Kd,HLA-B*18:01 [6]; [11],15.4 µM
